Laboratory results taken from article PMC4931317, “UtpA and UtpB chaperone nascent pre-ribosomal RNA and U3 snoRNA to initiate eukaryotic ribosome assembly” (Nature Communications, 2016).
Values belong to the binder of their own block, whether it stands above or below them.

B2: Utp9 (natural protein, S. cerevisiae, UniProt P38882 1-575, looked up)
chain: MGSSLDLVASFSHDSTRFAFQASVAQKNNVDIYPLNETKDYVVNSSLVSHIDYETNDMKVSDVIFFGWCSDLIDTQSSNIKRKLDEDEGTGESSEQRCENFFVNGFPDGRIVVYSSNGKDIVNIIKNKKEILGADTDESDIWILDSDKVVKKLQYNNSKPLKTFTLVDGKDDEIVHFQILHQNGTLLVCIITKQMVYIVDPSKRRPSTKYSFEISDAVACEFSSDGKYLLIANNEELIAYDLKEDSKLIQSWPVQVKTLKTLDDLIMALTTDGKINNYKIGEADKVCSIVVNEDLEIIDFTPINSKQQVLISWLNVNEPNFESISLKEIETQGYITINKNEKNNADEADQKKLEEKEEEAQPEVQHEKKETETKINKKVSKSDQVEIANILSSHLEANSTEILDDLMSGSWTEPEIKKFILTKINTVDHLSKIFLTISKSITQNPWNEENLLPLWLKWLLTLKSGELNSIKDKHTKKNCKHLKSALRSSEEILPVLLGIQGRLEMLRRQAKLREDLAQLSMQEGEDDEIEVIEHSNVISNPLQDQASPVEKLEPDSIVYANGESDEFVDASEYKD
notes: Utp9, S. cerevisiae, subunit of UtpA; No tag is named for it in either strain; strains are in Supplementary Data 1; source: endogenous, S. cerevisiae YSK32, co-purified with Utp10-GFP; overexpressed (galactose promoter) in S. cerevisiae YSK122, co-purified with Utp15-mCherry

Legend:
Utp5 = biological target: T1, Utp5 (S. cerevisiae, UniProt Q04177 1-643); experiment: pull-down; Utp4, Utp5, Utp8, Utp9 and Utp15-3myc-TEV-mCherry-3FLAG overexpressed in yeast YSK122; lysate on anti-mCherry nanobody sepharose; 50 mM HEPES-NaOH pH 7.6, 100 mM NaCl, 4 °C; TEV elution; conditions: partners not purified
T1 construct: Utp5, S. cerevisiae, subunit of UtpA; No tag is named for it in either strain; strains are in Supplementary Data 1; source: endogenous, S. cerevisiae YSK32, co-purified with Utp10-GFP; overexpressed (galactose promoter) in S. cerevisiae YSK122, co-purified with Utp15-mCherry
T1 sequence (looked up): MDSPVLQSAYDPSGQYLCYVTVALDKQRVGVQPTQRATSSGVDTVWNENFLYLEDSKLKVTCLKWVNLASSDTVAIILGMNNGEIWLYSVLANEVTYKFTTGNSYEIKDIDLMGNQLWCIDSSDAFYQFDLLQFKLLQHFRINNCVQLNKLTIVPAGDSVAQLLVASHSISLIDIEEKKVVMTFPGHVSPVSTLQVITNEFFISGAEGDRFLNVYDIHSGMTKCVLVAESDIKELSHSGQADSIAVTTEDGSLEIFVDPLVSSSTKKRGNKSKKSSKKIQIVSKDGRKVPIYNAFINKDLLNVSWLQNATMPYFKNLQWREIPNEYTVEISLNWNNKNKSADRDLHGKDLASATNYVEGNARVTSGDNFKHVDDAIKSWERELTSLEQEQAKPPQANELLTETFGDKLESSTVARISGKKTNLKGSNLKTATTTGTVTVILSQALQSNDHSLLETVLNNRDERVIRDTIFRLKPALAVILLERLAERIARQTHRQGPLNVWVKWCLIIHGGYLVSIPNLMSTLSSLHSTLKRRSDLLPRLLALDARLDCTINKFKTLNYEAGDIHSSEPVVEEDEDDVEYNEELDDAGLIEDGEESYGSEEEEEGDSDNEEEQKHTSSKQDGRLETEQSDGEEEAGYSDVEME

Utp8 = biological target: T2, Utp8 (S. cerevisiae, UniProt P53276 1-713); experiment: as above; conditions: partners not purified
T2 construct: Utp8, S. cerevisiae, subunit of UtpA; No tag is named for it in either strain; strains are in Supplementary Data 1; source: endogenous, S. cerevisiae YSK32, co-purified with Utp10-GFP; overexpressed (galactose promoter) in S. cerevisiae YSK122, co-purified with Utp15-mCherry
T2 sequence (looked up): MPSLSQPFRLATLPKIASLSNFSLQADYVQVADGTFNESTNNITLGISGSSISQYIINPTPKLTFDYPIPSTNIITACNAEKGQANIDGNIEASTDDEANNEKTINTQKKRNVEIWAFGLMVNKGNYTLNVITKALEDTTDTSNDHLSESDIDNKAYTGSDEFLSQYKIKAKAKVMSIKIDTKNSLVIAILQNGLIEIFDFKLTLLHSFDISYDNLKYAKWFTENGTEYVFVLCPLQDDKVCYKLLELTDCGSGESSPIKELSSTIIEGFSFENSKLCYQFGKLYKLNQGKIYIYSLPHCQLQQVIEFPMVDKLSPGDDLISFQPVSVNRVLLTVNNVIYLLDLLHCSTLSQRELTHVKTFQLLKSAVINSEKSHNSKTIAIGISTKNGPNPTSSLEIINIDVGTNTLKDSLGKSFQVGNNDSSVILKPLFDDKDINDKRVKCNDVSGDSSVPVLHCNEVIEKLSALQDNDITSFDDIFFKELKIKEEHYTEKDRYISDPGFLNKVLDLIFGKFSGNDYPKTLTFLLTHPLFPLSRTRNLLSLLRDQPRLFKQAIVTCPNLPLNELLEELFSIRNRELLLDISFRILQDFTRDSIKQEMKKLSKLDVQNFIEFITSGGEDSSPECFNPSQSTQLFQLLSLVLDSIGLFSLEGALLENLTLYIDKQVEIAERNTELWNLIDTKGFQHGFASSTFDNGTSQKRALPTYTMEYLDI

Utp9 = biological target: B2; experiment: as above; conditions: partners not purified
Utp4 = biological target: T3, Utp4 (S. cerevisiae, UniProt Q06679 1-776); experiment: cross-linking; DSS (0.2 mM, H12/D12) cross-linking of SEC-purified endogenous UtpA, 25 °C, 30 min, 50 mM HEPES-NaOH pH 7.6, 200 mM NaCl, 1 mM EDTA; cross-linked peptides found by mass spectrometry (pLink); conditions: both partners purified
T3 construct: Utp4, S. cerevisiae, subunit of UtpA; No tag is named for it in either strain; strains are in Supplementary Data 1; source: endogenous, S. cerevisiae YSK32, co-purified with Utp10-GFP; overexpressed (galactose promoter) in S. cerevisiae YSK122, co-purified with Utp15-mCherry
T3 sequence (looked up): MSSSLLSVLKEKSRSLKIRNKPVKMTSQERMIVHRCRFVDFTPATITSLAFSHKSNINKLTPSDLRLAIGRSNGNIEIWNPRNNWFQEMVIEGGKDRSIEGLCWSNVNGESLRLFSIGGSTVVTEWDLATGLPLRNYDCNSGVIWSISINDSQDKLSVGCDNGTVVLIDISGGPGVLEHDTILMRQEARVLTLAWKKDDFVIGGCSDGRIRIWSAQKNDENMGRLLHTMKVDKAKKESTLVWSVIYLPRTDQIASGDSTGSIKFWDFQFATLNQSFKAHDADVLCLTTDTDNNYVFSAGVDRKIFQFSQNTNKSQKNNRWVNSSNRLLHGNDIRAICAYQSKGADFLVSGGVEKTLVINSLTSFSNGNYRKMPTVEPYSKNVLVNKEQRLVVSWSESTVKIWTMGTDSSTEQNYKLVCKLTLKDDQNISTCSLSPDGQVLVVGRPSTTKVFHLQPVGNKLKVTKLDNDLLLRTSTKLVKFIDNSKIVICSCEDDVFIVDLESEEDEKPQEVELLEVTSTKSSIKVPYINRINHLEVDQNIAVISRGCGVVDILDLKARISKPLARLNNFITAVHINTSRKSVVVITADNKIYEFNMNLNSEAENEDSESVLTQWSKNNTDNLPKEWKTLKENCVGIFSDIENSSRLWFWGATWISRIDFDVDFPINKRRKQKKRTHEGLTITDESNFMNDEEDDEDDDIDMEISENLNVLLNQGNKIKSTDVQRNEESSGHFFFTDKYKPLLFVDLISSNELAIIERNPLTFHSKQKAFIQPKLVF

Utp10-3C-GFP = biological target: T4, Utp10-3C-GFP (S. cerevisiae, UniProt P42945 1-1769); experiment: pull-down; UtpA held via Utp10-GFP on anti-GFP nanobody sepharose (purified at 200 mM NaCl), then incubated 7 h at 4 °C in buffer with 400 mM NaCl; 3C elution; Coomassie-stained SDS-PAGE; conditions: partners not purified
T4 construct: Utp10, S. cerevisiae, subunit of UtpA (200 kDa); GFP is joined through a 3C protease site; it holds the protein on the beads in a1-a3 and is cleaved off by 3C on elution, so it is absent in the SEC step and in the DSS cross-linking (a6); also called Utp10-GFP; Utp10-sbp-H14-3C-GFP; source: S. cerevisiae YSK32, C-terminal tag integrated in the genome, endogenous level; captured from lysate on …
T4 sequence (P42945 whole entry): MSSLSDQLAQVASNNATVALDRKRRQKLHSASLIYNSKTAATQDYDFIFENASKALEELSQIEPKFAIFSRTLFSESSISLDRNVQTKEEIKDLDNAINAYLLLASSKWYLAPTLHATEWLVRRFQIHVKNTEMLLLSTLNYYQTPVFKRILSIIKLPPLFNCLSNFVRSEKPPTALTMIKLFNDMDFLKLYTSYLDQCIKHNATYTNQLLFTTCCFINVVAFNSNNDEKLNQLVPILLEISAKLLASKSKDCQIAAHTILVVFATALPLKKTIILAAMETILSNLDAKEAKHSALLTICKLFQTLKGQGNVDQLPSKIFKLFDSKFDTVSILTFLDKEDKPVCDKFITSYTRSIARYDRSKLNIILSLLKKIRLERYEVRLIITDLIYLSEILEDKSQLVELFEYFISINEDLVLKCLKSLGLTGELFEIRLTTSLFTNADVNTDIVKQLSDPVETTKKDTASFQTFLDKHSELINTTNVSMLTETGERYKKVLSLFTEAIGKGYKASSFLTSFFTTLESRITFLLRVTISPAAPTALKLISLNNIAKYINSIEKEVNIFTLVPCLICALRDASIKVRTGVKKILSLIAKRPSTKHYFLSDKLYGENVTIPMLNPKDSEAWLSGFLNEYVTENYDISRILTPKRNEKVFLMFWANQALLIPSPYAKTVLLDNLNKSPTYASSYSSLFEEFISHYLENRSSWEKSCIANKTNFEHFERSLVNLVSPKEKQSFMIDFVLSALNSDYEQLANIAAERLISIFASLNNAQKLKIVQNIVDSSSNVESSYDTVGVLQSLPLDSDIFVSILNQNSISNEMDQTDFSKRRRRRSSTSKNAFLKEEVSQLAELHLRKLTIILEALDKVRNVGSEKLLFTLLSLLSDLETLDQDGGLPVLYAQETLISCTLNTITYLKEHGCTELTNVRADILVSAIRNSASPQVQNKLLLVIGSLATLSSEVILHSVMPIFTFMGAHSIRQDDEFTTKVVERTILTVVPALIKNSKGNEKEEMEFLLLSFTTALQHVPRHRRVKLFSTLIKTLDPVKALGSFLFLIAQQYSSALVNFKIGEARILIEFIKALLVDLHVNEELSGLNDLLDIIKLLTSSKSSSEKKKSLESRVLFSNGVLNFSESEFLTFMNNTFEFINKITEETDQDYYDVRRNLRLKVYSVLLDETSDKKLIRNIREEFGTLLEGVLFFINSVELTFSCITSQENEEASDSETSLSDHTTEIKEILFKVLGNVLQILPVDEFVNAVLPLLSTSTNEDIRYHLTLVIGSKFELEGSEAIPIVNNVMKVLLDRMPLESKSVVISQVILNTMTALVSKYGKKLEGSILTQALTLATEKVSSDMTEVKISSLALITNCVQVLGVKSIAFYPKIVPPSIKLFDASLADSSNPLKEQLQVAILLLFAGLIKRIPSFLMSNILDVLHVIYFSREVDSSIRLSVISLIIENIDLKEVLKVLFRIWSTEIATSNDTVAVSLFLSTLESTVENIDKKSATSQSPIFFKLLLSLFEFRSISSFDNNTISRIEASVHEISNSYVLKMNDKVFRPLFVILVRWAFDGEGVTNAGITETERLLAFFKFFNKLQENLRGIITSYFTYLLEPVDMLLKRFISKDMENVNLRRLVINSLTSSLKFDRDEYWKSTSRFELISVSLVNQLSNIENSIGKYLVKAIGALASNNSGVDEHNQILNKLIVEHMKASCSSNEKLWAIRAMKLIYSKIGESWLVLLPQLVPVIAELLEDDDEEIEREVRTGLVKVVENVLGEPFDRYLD

binding result (Utp5): binds
binding result (Utp8): binds
binding result (Utp9): binds
B1: Utp15-3myc-TEV-mCherry-3FLAG (overexpressed) (natural protein, S. cerevisiae, UniProt Q04305 1-513, looked up)
chain: MSTARPRIITSKAPLLPQQTTPEQRYWRQYTSAQLVKEHNSVTHISFNPQHPHDFAVTSSTRVQIFSSRTRQVIKTFSRFKDVVYSASFRSDGKLLCAGDATGLVSVYDSYNPRTILLSINASTHPTHVTKFHTQDNKILATASDDRVTRLWDISNAYEPQLELTGATDYVRTLSFIPAAPHLVATGSYDGLIRLYDTRSSGSTPIYSLNHDQPVENVIAVSPTQIVSCGGNNFKVWDLTSNKKLYERGNFNKAVTCLDYVENFDSPMQSALIASSLDGHVKVFDPLDNFQVKFGWKFSGPVLSCAVSPSTAQGNRHLVAGLSSGLLAIRTKKKEKRSSDKENAPASFNKNAKSNNFQRMMRGSEYQGDQEHIIHNDKVRSQRRMRAFERNINQFKWSEALDNAFVPGMAKELTLTVLQELRKRGKVRVALYGRDESTLEPLLNWCLKGIEDVRSASIVADWVAVVLELYGNTLESSPVLQELMIDLKTKVRHEIHKSKEAQRIEGMLQLLTS
notes: Utp15, S. cerevisiae, subunit of UtpA; Captured by mCherry in a4; the complex is eluted by TEV cleavage, so mCherry-3FLAG is off in the SEC step (a5); also called Utp15-TEV-mCherry; Utp15-mCherry; source: S. cerevisiae YSK122, overexpressed (galactose promoter); captured from lysate on anti-mCherry nanobody sepharose, TEV elution, SEC; not shown: 3myc, C-terminal, kept; mCherry, C-terminal, kept; …

Binder: B2
binding result (Utp4): binds

binding result (Utp10-3C-GFP): binds
B3: Utp17 (Nan1) (natural protein, S. cerevisiae, UniProt Q02931 1-896, looked up)
chain: MTQSLGIEQYKLSVVSGGKPALNNLSSVTGNKNIARLSQDQRNYIIPFNNQIKVYSVETRQCVKTLKFANNSLLSGIFLQEEENNESIVKILLGDITVPQQEDAHLITVFTNNGHVIVLNYKGKLVESPKHFKISLADEKLANVFHSEGNYRILTTFKDPSQKAHNSLQSYRLYALTFDDAKKQFEVAHQAEWHNVILSNISSNGKLLAHMCKDVSTKDHEHKSISVVSLFDDSVNLSFPLGSILSSQTQSLSYNTRYVSSMAIDNMGQQLAVGFASGVISIVSLADLQIRLLKWHIDSVLSLSFSHDGSYLLSGGWEKVMSLWQLETNSQQFLPRLNGIIIDCQVLGPQGNYYSLILQMTENNSNSDYQFLLLNASDLTSKLSINGPLPVFNSTIKHIQQPISAMNTKNSNSITSLNHSKKKQSRKLIKSRRQDFTTNVEINPINKNLYFPHISAVQIFDFYKNEQVNYQYLTSGVNNSMGKVRFELNLQDPIITDLKFTKDGQWMITYEIEYPPNDLLSSKDLTHILKFWTKNDNETNWNLKTKVINPHGISVPITKILPSPRSVNNSQGCLTADNNGGLKFWSFDSHESNWCLKKISLPNFNHFSNSVSLAWSQDGSLIFHGFDDKLQILDFDTFKKFESLENTKTVSEFTLDSEIQTVKLINDTNLIVATRTTLNAINLLRGQVINSFDLYPFVNGVYKNGHMDRLITCDERTGNIALVINQQLTDLDGVPTINYKSRIIIFDSDLSTKLGNFTHHEYISWIGWNYDTDFIFLDIESTLGVVGTTVNTQLSDEVNNEGILDGLVSNTITTSASNSDIFAEQLHKLSSRGKKSDTRDKNTNDNDEDEEDIALEFINGEKKDKLVNMNSFTSMFDNIQNVQMDTFFDRVMKVLT
notes: Utp17 (Nan1), S. cerevisiae, subunit of UtpA (101 kDa); source: endogenous, S. cerevisiae YSK32, co-purified with Utp10-GFP
